Source: patent US6100053A, “Microbial transglutaminases, their production and use” (priority 1994, dated 2000)
Like-named read-outs stand apart in the source and are kept apart here.

Assays:
[1] = system: TGase from Bacteridium (DSM 10093); experiment: PMSF inhibition, putrescine assay; type: biochemical, Bacteridium sp. DSM 10093; conditions: 1.6 mM PMSF; 1 h, 30° C., pH 8.5, α-casein + EDTA; -PMSF = 100
Description: (§1) Each of these washes takes place for 5 min. […] The washed filters are counted directly in scintillation vials.
(§2) A putrescine control assay was performed to investigate whether TGases from different bacterial strains are sensitive to PMSF (phenyl methyl sulfonyl fluoride).
(§3) The assay was run under optimized conditions (see examples 1-3), i.e. 1 h incubation at 30° C., pH 8.5 (2% α-casein+EDTA in 100 mM modified Britton-Robinson-buffer 0.1 M, pH 8.5). Final concentration of PMSF was 1.6 mM. As control an assay including propanol was included: propanol is the solvent of PMSF. This assay ensures that solvent effects are excluded. The assay contained 0.9 M 2-propanol i.e. the same concentration as in PMSF containing assay (addition of 8 μl propanol from 13 M instead of 8 μl PMSF in 2-propanol).

[2] = system: TGase from Bacteridium (CBS 495.74); experiment: PMSF inhibition, putrescine assay; type: biochemical, Bacteridium sp. CBS 495.74; conditions: 1.6 mM PMSF; 1 h, 30° C., pH 8.5, α-casein + EDTA; -PMSF = 100
Description: as §1, §2, §3

[3] = biological target: T1, purified transglutaminase from S. mobaraense (Streptomyces mobaraensis, UniProt P81453); experiment: PMSF sensitivity of purified transglutaminase; type: biochemical, Streptoverticillium mobaraense
T1 sequence (P81453 77-407): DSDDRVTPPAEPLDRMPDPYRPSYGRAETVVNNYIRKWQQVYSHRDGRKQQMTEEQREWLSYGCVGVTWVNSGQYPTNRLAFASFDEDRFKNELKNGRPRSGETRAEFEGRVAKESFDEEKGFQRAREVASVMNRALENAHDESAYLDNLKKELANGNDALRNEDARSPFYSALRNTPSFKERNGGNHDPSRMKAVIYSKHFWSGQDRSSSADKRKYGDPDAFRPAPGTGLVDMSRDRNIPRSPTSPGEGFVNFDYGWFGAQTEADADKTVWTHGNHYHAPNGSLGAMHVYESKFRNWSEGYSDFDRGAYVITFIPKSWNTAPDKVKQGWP
Description: as §2

[4] = system: TGase from Bacillus badius; experiment: PMSF inhibition, putrescine assay; type: biochemical; conditions: 1.6 mM PMSF; 1 h, 30° C., pH 8.5, α-casein + EDTA; -PMSF = 100
Description: as §1, §2, §3

[5] = system: TGase from Bacillus firmus; experiment: PMSF inhibition, putrescine assay; type: biochemical; conditions: 1.6 mM PMSF; 1 h, 30° C., pH 8.5, α-casein + EDTA; -PMSF = 100
Description: as §1, §2, §3

[6] = system: TGase from Bacillus mycoides; experiment: PMSF inhibition, putrescine assay; type: biochemical; conditions: 1.6 mM PMSF; 1 h, 30° C., pH 8.5, α-casein + EDTA; -PMSF = 100
Description: as §1, §2, §3

[7] = biological target: T2, TGase from Streptomyces lydicus (Streptomyces nigrescens, UniProt A0ABY7I822); experiment: PMSF inhibition, putrescine assay; type: biochemical
T2 construct: mature 331 aa, N-terminus […]
T2 sequence (A0ABY7I822 88-418): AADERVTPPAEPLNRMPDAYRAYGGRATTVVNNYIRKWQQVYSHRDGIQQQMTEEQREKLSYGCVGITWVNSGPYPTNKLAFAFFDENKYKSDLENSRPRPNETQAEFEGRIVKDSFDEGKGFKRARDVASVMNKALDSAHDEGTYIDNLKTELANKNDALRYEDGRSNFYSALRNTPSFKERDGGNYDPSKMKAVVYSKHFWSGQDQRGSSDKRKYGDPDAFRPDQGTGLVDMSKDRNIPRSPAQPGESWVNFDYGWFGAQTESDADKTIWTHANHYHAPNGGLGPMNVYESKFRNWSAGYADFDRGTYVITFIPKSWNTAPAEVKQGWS
Description: as §1, §2, §3

[8] = system: TGase from Bacillus aneurinolyticus; experiment: PMSF inhibition, putrescine assay; type: biochemical; conditions: 1.6 mM PMSF; 1 h, 30° C., pH 8.5, α-casein + EDTA; -PMSF = 100
Description: as §1, §2, §3

[9] = system: TGase from strain Moo5A10; experiment: PMSF inhibition, putrescine assay; type: biochemical, Moo5A10 (DSM 10094); conditions: 1.6 mM PMSF; 1 h, 30° C., pH 8.5, α-casein + EDTA; -PMSF = 100
Description: as §1, §2, §3

[10] = biological target: Ca2+-independent transglutaminase from Streptomyces platensis (Streptomyces platensis, UniProt A5PHK5); conditions: 50 μM inhibitor, nine fold molar excess to cysteine; 2 h at room temperature in the putrescine assay; duplicate
[11] = biological target: transglutaminase from S. mobaraense (Streptomyces mobaraensis, UniProt P81453); conditions: 1 mM inhibitor, preincubation 30 min at 25° C.; cited from earlier work
[12] = biological target: α-casein
[13] = biological target: α-casein; remark: listed apart in the source

Ca2+-independent transglutaminase from Streptomyces platensis, sequence (A5PHK5 88-418): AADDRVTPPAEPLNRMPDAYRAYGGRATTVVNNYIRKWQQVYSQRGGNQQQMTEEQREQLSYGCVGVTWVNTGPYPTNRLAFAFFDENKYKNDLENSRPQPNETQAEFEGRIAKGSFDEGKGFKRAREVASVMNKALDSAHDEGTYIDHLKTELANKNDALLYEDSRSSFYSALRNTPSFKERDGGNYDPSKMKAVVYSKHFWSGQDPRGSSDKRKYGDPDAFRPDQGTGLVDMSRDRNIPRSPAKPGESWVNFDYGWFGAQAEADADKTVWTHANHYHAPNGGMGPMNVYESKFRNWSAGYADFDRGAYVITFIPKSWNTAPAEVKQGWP

Row | Compound | Units/ml (putrescine assay) [12] [units/ml] | Units/ml (putrescine assay) [13] [Units/ml] | also measured
1 | O=S(=O)(F)Cc1ccccc1 [PMSF, phenylmethylsulfonylfluoride] | – | – | Relative activity (%) +PMSP [1]: 75%; Relative activity (%) +PMSP [2]: 75%; sensitivity to PMSF [3]: insensitive; Relative activity (%) +PMSP [4]: 62%; Relative activity (%) +PMSP [5]: 55%; Relative activity (%) +PMSP [6]: 35%; Relative activity (%) +PMSP ([7]; 1.6 mM PMSF, 1 h, 30° C., pH 8.5, α-casein + EDTA, -PMSF = 100): 175%; sensitivity to PMSF ([7]; purified transglutaminase): insensitive; Relative activity (%) +PMSP [8]: 47%; Relative activity (%) +PMSP [9]: 75%
2 | O=C(O)CI [mono-iodoacetic acid] | – | – | residual activity [10]: no residual activity; residual activity [11]: 76%
3 | Ca2+-independent transglutaminase from Streptomyces platensis (enzyme) | 1.4 | – | –
4 | TGase sample of Bacillus aneurinolyticus (pool or library) | 0.8 | – | –
5 | TGase sample of Bacillus badius (pool or library) | 0.8 | – | –
6 | TGase sample of Bacillus sp., ATCC 21537 (pool or library) | 0.1 | – | –
7 | TGase sample of Bacteridium sp., DSM 10093 (pool or library) | 0.3 | – | –
8 | TGase sample of Pseudomonas amyloderamosa (pool or library) | 0.08 | – | –
9 | TGase sample of Pseudomonas putida, NCIMB 9869 (pool or library) | 1.4 | – | –
10 | TGase sample of Rothia dentocariosa (pool or library) | 0.9 | – | –
11 | TGase sample of Streptomyces nigrescens (pool or library) | 0.3 | – | –
12 | TGase sample of Streptomyces sioyaensis (pool or library) | 3.3 | – | –
13 | transglutaminase from Streptomyces lydicus, NRRL B-3446 (former Streptomyces libani) (enzyme) | 1.3 | – | –
14 | transglutaminase preparation (culture broth) of Pleurotus sp. (pool or library) | – | 2.36 | –
15 | transglutaminase preparation (culture broth) of Podospora tetraspora (pool or library) | – | 0.3 | –
16 | transglutaminase preparation (culture broth) of Preussia isomera (pool or library) | – | 0.22 | –
17 | transglutaminase preparation (culture broth) of Pycnoporus cinnabarinus (pool or library) | – | 0.14 | –
18 | transglutaminase preparation (culture broth) of Rhizoctonia solani (pool or library) | – | 0.17 | –
19 | transglutaminase preparation (culture broth) of Savoryella lignicola (pool or library) | – | 6.24 | –
20 | transglutaminase preparation (culture broth) of Sporormiella australis (pool or library) | – | 0.13 | –
21 | transglutaminase preparation (culture broth) of Sporormiella minima (pool or library) | – | 0.2 | –
22 | transglutaminase preparation (culture broth) of Tricholoma myomyces (pool or library) | – | 0.23 | –
23 | transglutaminase preparation (culture broth) of Valsa pini (pool or library) | – | 0.73 | –
24 | transglutaminase preparation (culture broth) of Warcupiella spinulosa (pool or library) | – | 0.41 | –

Now from value to compound, other results behind:

Row | Units/ml (putrescine assay) [12] [units/ml] | Units/ml (putrescine assay) [13] [Units/ml] | Compound | also measured
25 | 0.06 | – | TGase sample of B. amyloliquefaciens (pool or library) | –
26 | 0.6 | – | TGase sample of Bacillus firmus, ATCC 17060 (pool or library) | –
27 | 0.03 | – | TGase sample of Bacillus firmus, DSM 12 (pool or library) | –
28 | 0.03 | – | TGase sample of Bacillus megaterium, AJ 3355 (pool or library) | –
29 | 0.02 | – | TGase sample of Bacillus megaterium, ATCC 13632 (pool or library) | –
30 | 0.02 | – | TGase sample of Bacillus megaterium, ATCC 15450 (pool or library) | –
31 | 0.4 | – | TGase sample of Bacillus mycoides (pool or library) | –
32 | 0.5 | – | TGase sample of Bacteridium sp., CBS 495.74 (pool or library) | –
33 | 0.3 | – | TGase sample of Hafnia alvei (pool or library) | –
34 | 0.6 | – | TGase sample of Hydrogenophaga palleroni (Basonym: Pseudomonas palleroni) (pool or library) | –
35 | 0.3 | – | TGase sample of Kitasatao purpurea (pool or library) | –
36 | 0.84 | – | TGase sample of Pseudomonas putida, DSM 1693 (pool or library) | –
37 | 0.36 | – | TGase sample of Zymomonas mobilis (pool or library) | –
38 | – | 0.21 | transglutaminase preparation (culture broth) of Pholiota jahnii (pool or library) | –
39 | – | 0.22 | transglutaminase preparation (culture broth) of Pleurotus dryinus (pool or library) | –
40 | – | 0.19 | transglutaminase preparation (culture broth) of Psathyrella condolleana (pool or library) | –
41 | – | 0.14 | transglutaminase preparation (culture broth) of Scytinostroma portentosum (pool or library) | –
42 | – | 0.16 | transglutaminase preparation (culture broth) of Stropharia coerulea (pool or library) | –
43 | – | 0.23 | transglutaminase preparation (culture broth) of Talaromyces helicus (pool or library) | –
44 | – | 0.21 | transglutaminase preparation (culture broth) of Trametes hirsuta (pool or library) | –
45 | – | 0.25 | transglutaminase preparation (culture broth) of Trichoderma harzianum (pool or library) | –
46 | – | 0.16 | transglutaminase preparation (culture broth) of Tricholoma flavovirens (pool or library) | –
47 | – | 0.28 | transglutaminase preparation (culture broth) of Xylaria sp (pool or library) | –
